Measurements as given in patent US20120034215A1 (Daiichi Sankyo, published 2012).

T1: cynomolgus monkey MST1R with N-terminal Flag tag, expressed on HEK293T cells (cynomolgus monkey, UniProt Q04912 27-1400 (human entry))
T1 construct: ORF cloned excluding the signal peptide region; also called cynomolgus MST1R; not shown: N-terminal Flag tag from vector pFLAG-myc-CMV-19 (Sigma)
T1 chain: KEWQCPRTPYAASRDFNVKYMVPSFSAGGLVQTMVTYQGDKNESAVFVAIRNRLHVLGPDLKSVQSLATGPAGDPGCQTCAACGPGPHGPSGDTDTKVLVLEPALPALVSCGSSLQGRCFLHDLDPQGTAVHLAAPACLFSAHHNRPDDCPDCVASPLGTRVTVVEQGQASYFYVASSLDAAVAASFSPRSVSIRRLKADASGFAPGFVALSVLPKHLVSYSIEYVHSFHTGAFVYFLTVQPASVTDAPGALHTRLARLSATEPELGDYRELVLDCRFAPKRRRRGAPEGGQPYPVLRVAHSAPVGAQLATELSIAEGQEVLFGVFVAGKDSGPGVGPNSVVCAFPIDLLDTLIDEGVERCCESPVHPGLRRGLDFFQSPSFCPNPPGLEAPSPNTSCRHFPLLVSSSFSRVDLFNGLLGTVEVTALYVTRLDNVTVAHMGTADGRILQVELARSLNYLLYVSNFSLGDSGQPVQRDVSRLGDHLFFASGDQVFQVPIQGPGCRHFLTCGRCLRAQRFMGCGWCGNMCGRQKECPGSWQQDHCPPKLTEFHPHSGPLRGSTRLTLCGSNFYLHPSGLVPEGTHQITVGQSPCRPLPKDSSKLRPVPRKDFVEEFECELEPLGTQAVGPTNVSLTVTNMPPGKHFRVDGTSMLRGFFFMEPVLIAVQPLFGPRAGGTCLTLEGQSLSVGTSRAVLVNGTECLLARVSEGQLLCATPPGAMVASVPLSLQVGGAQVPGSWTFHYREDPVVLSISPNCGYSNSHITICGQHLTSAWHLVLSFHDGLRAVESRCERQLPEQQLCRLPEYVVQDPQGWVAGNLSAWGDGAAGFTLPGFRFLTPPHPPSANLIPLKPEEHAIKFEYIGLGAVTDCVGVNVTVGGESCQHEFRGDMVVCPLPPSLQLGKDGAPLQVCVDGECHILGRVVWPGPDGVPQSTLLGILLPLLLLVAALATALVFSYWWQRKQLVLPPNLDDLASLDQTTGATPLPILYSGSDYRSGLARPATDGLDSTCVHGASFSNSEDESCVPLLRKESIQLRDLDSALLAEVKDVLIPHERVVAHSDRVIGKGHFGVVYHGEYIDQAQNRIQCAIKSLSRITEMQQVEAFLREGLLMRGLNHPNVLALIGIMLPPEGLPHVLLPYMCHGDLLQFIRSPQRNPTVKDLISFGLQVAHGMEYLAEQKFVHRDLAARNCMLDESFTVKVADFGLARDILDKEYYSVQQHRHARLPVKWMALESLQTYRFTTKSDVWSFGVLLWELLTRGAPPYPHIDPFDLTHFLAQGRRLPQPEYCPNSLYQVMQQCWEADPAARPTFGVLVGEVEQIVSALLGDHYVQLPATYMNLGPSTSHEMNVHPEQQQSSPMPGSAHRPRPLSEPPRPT


Target: T1, cynomolgus monkey MST1R with N-terminal …
Experiment: flow cytometry on transfected HEK293T cells, 2 ug/ml IgG1
Method: Cells (5×10⁵ cells/well) were incubated with Fab or IgG antibodies at the indicated concentrations in 50 μl FACS buffer (PBS, 5% FCS) for 60 min at 4° C. in round bottom 96-well culture plates (Corning). Cells were washed twice and then incubated with Fluorescein Isothiocyanate (FITC) conjugated detection antibody for 30 min at 4° C. Cells were washed again, resuspended in 0.3 ml FACS buffer and then analyzed by flow cytometry in a Cytomics FC500 (Beckman Coulter, Inc.). Data were analysed via FlowJo software (Tomy digital biology Co., Ltd.). Polyclonal goat anti-hMSP R IgG (R&D systems) or anti-FLAG M2 antibody (Sigma) was used as a positive control and MOR03207 (anti-lysozyme) antibody was used as a negative control.
FACS-analysis of MST1R ortholog-expressing cells: Human MST1R (cDNA nucleotide sequence is shown as GenBank Accession No: NM_{—}002447.2), cynomolgus monkey MST1R and mouse MST1R (cDNA nucleotide sequence is shown as GeneBank Accession No: NM_{—}009074.1) expression vector containing N-terminal Flag tag (pFLAG-myc-CMV-19, Sigma) were constructed. cDNA encoding cynomolgus monkey MST1R was amplified by PCR using cynomolgus monkey stomach cDNA as a template with forward and reverse primers having nucleotide sequences of SEQ ID NO: 34 and 35, respectively. By sequencing analysis of PCR product, the cynomolgus MST1R ORF nucleotide sequence was identified as shown in SEQ ID NO: 36. The corresponding amino acid sequence was shown in SEQ ID NO: 37. Then human, cynomolgus monkey and mouse MST1R ORF cDNA, excluding signal peptide regions, were amplified using respective forward and reverse primers having nucleotide sequences of SEQ ID NO: 38 and 39 (human), 40 and 41 (cynomolgus monkey), and 42 and 43 (mouse) with appropriate cloning sites and then cloned into pFLAG-myc-CMV-19. An amplified human MST1R fragment encodes amino acids corresponding to GenBank Accession No: NP_{—}002438.2 (SEQ ID NO: 45). A Mouse MST1R fragment encodes amino acids corresponding to GenBank Accession No: NP_{—}033100.1 (SEQ ID NO: 47) except for those amino acid differences at positions: 688 (Leu to Pro), 713 (Ile to Val), 714 (Ala to Gly) and 719 (Ala to Val). These expression vectors were transfected into HEK293T cells. For FACS-analysis, cells were incubated with 2 μg/ml primary antibodies followed by incubation with FITC-labeled secondary antibody as described above.

Row | Binder | binding result
1 | MOR07923 (human IgG1) (antibody, V domains shown) VH: QVQLVESGGGLVQPGGSLRLSCAASGFTFNSYSMSWVRQAPGKGLEWVSYISSRSSTTYYADSVKGRFTISRDNSKNTLYLQMNSLRAEDTAVYYCARGYFHGMDYWGQGTLVTVSS VL: DIVLTQSPATLSLSPGERATLSCRASQSVSFDYLGWYQQKPGQAPRLLIYGASNRATGVPARFSGSGSGTDFTLTISSLEPEDFATYYCFQYLIVPFTFGQGTKVEIKR | binds
2 | MOR07692 (human IgG1) (antibody, V domains shown) VH: QVQLVESGGGLVQPGGSLRLSCAASGFTFNSYSMSWVRQAPGKGLEWVSYISSRSSTTYYADSVKGRFTISRDNSKNTLYLQMNSLRAEDTAVYYCARGYFHGMDYWGQGTLVTVSS VL: DIVLTQSPATLSLSPGERATLSCRASQSVSFDYLGWYQQKPGQAPRLLIYGASNRATGVPARFSGSGSGTDFTLTISSLEPEDFATYYCQQYYNMPYTFGQGTKVEIKR | binds
3 | MOR07924 (human IgG1) (antibody, V domains shown) VH: QVQLVESGGGLVQPGGSLRLSCAASGFTFNSYSMSWVRQAPGKGLEWVSYISSRSSTTYYADSVKGRFTISRDNSKNTLYLQMNSLRAEDTAVYYCARGYFHGMDYWGQGTLVTVSS VL: DIVLTQSPATLSLSPGERATLSCRASQSVSFDYLGWYQQKPGQAPRLLIYGASNRATGVPARFSGSGSGTDFTLTISSLEPEDFATYYCQQYNINPFTFGQGTKVEIKR | binds
4 | MOR07925 (human IgG1) (antibody, V domains shown) VH: QVQLVESGGGLVQPGGSLRLSCAASGFTFNSYSMSWVRQAPGKGLEWVSYISSRSSTTYYADSVKGRFTISRDNSKNTLYLQMNSLRAEDTAVYYCARGYFHGMDYWGQGTLVTVSS VL: DIVLTQSPATLSLSPGERATLSCRASQSVSFDYLGWYQQKPGQAPRLLIYGASNRATGVPARFSGSGSGTDFTLTISSLEPEDFATYYCLQYFNPPHTFGQGTKVEIKR | binds
5 | MOR07926 (human IgG1) (antibody, V domains shown) VH: QVQLVESGGGLVQPGGSLRLSCAASGFTFNSYSMSWVRQAPGKGLEWVSYISSRSSTTYYADSVKGRFTISRDNSKNTLYLQMNSLRAEDTAVYYCARGYFHGMDYWGQGTLVTVSS VL: DIVLTQSPATLSLSPGERATLSCRASQSVSFDYLGWYQQKPGQAPRLLIYGASNRATGVPARFSGSGSGTDFTLTISSLEPEDFATYYCFQALIMPFTFGQGTKVEIKR | binds
